± gives the uncertainty stated by the source.
Assay: amyloid nucleation score (Sup35N fusion, yeast selection) (log enrichment); library NNK2; higher = more nucleation; inactive = no reads after selection
How it was run: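 For the nucleation score, DiMSum gave the log enrichment of output over input reads, centred on the mode score of non-aggregating sequences. Psi-negative yeast expressing Sup35N fused to peptides of 20 random codons were induced with 100 μM copper sulfate for 24 hours and grown 7 days at 30°C on medium lacking adenine and uracil. Input and output plasmid inserts were Illumina-sequenced, and sequences with under 100 input reads were excluded.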

| Substance | amyloid nucleation score |
| --- | --- |
| VLRSTLDD | inactive |
| VLSCRSLSAQFSMPAFMEQS | 0.972 ± 0.18 |
| VLSDRKVY | 0.117 ± 0.79 |
| VLSHYIRLHKSLDLSYSNGV | -0.817 ± 0.61 |
| VLSWGFKGNAKPHHTDSLKG | 0.603 ± 0.22 |
| VLSYSVFTLRLATKIVP | -0.337 ± 1.1 |
| VLTMHPVRMFLDFFDDMMCY | inactive |
| VLVCSANRLCNEPTIDRVLG | 4.14 ± 0.057 |
| VLVIGSIVYVCLSKDCCFNV | 9.543 ± 0.04 |
| VLVIVVTLRKWMTLNRRGVP | 0.155 ± 0.53 |
| VLVKL | -1.17 ± 0.48 |
| VLWHTGDMDMRVNRANELVS | 4.52 ± 0.046 |
| VLWMVQMIRPRSS | 7.02 ± 0.074 |
| VMATLHSLFVYRVDTFMFVE | 0.358 ± 0.51 |
| VMGDWAFSGFSNSNFS | -0.931 ± 0.44 |
| VMGIEMIFVVGLWQLEDVKG | 0.747 ± 0.23 |
| VMLHPSNSLALNCLT | -0.297 ± 0.28 |
| VMWDNVLSVLLVSGRVAFPM | 2.87 ± 0.099 |
| VNCPRIMGSIGRLFVVYTQM | 8.319 ± 0.06 |
| VNCYTIWVGNSSRSVHSINA | 5.27 ± 0.083 |
| VNFGI | -0.948 ± 0.64 |
| VNFPLVSGG | 0.114 ± 0.38 |
| VNFVLGVL | 0.086 ± 0.19 |
| VNIVVILFIVADIKWRRF | 3.15 ± 0.12 |
| VNLLFVVLCTMGSVSFKNSC | 7.768 ± 0.036 |

| Substance | amyloid nucleation score |
| --- | --- |
| VNLMVYASVIIGCAVARS | 7.06 ± 0.045 |
| VNMLEQKGRMSDETPCTATP | 0.107 ± 0.79 |
| VNPCVWIRIYWRS | -0.014 ± 0.65 |
| VNQLRHYDLGINAHGQCRRL | 0.54 ± 0.8 |
| VNSNEVFIYPFTNLNFMML | 5.17 ± 0.087 |
| VNVIFHEYNVDAG | 4.02 ± 0.12 |
| VNYHLFVYAQWIVRKGFILL | -0.78 ± 0.44 |
| VNYYSFLLVFPGLQLTREIN | 6.38 ± 0.09 |
| VPFGQTAVLSEGDSEVGGMK | -0.228 ± 1.1 |
| VPGSMLLCIVQALKHANMAG | 0.417 ± 0.24 |
| VPHHPRVGSLPIHNSAAPYM | -0.683 ± 0.45 |
| VPICLSS | inactive |
| VPSFYYRIVTYKRAE | 2.74 ± 0.094 |
| VQKTIVKLLAWLCFRGTAYC | 0.486 ± 0.8 |
| VQNMIDKVMKYWTYSICSTV | 1.27 ± 0.36 |
| VRCKVCPGRAYFDMRAPMQS | -0.512 ± 0.63 |
| VRCRMFMYVMSDLSFMS | 3.6 ± 0.047 |
| VRDNHNRSGQVRGGADLN | 0.822 ± 0.34 |
| VRFEELTEY | -0.171 ± 1 |
| VRFHVWDKGHRMI | 1.47 ± 0.18 |
| VRFWSLMCYACFSQSGSRVR | 3.91 ± 0.084 |
| VRFYDLFFKVGRQVYCLNNS | -0.694 ± 0.55 |
| VRGAVSLL | -0.64 ± 0.29 |
| VRGRVAHRRMGSTFVISAES | 0.266 ± 0.74 |
| VRLEPSHRVCRRVRLTSILR | inactive |

| Substance | amyloid nucleation score |
| --- | --- |
| VRPRGTKRCFFGRNHWRSSF | 0.428 ± 0.66 |
| VRSMTELGPRLVAGK | 1.45 ± 0.33 |
| VRTWESIVCCI | 4.14 ± 0.051 |
| VSCTWFGS | 0.797 ± 0.28 |
| VSDSNFNNGRYWLSVWRDVV | 4.25 ± 0.067 |
| VSFRYCLYYYTENVVHMIVK | -1.85 ± 0.54 |
| VSFTARSRHVDGGLSS | 1.04 ± 0.32 |
| VSKRNDLQTSFLYMMHLALQ | -0.536 ± 1 |
| VSLGDYASAGFLMWIRLHVW | -0.03 ± 0.56 |
| VSLINFFVNL | 8.418 ± 0.056 |
| VSLIVYKGHKRGWVYRVSRR | 0.42 ± 0.65 |
| VSLLFTPTNEYIWGTPLALR | inactive |
| VSLMKYQVELGNWKEPTCLG | 0.14 ± 0.56 |
| VSLSERLTHLLCIRF | 0.343 ± 0.64 |
| VSLSLC | -0.288 ± 0.5 |
| VSQSDMDLHWLVYRVYWYVF | -0.893 ± 0.44 |
| VSSTSLNSKDQWCCCERGSP | 0.619 ± 0.64 |
| VSTIIWCIR | 5.143 ± 0.047 |
| VSVARSSFARKDYCEFFRPG | 1.17 ± 0.28 |
| VSVDHSDFRLNAVSE | 1 ± 0.17 |
| VSVGACTHTLYKVRALSQGV | 0.486 ± 0.26 |
| VSWTPWESIFSGVMV | -0.568 ± 0.61 |
| VSYVYYSM | -0.242 ± 1.1 |
| VTFYGGAYSENYLVRCYALN | 4.47 ± 0.057 |
| VTMYPFRRIVGRQQLMAWLY | 0.973 ± 0.38 |

| Substance | amyloid nucleation score |
| --- | --- |
| VTNCNPDRW | -0.149 ± 0.63 |
| VTNVCGWRTEGWYDPGSAKT | 1.13 ± 0.33 |
| VTNVSQISNSRNVMERSIMF | -1.2 ± 0.41 |
| VTNYVEFCTGFRICGVSLPC | 8.387 ± 0.036 |
| VTPTEGCSVSHVRSRSLKNA | -0.511 ± 0.49 |
| VTPTFCETLVKPLHALHTNC | -1.22 ± 0.62 |
| VTRHLVVLNKYKWLGRLSTI | -1.04 ± 0.76 |
| VTRSLLLCHFSTCCFSALTW | -0.086 ± 0.32 |
| VTSLHSYSMMFPPMWMSNQS | 1.54 ± 0.32 |
| VTSYHFRMSCAVREALSSRY | 4.26 ± 0.055 |
| VTTMRNSFKFYAIVMGLCSF | 0.272 ± 0.65 |
| VTVLTGVG | 4.79 ± 0.058 |
| VTVMTRLDFSTRSSATKPHG | 5.667 ± 0.044 |
| VTYDCL | inactive |
| VTYFNVYSYCKYSAKGRCAS | 6.22 ± 0.081 |
| VVFNFFCPNHGAVTMFSCFH | 8.838 ± 0.03 |
| VVFVCN | inactive |
| VVILFVLGLVNPELS | 0.649 ± 0.55 |
| VVKDLRT | 1.91 ± 0.48 |
| VVLPFGMHAWYTKDNVEISS | 0.181 ± 0.15 |
| VVLSCFLQRAPQVYSLF | -0.821 ± 1.1 |
| VVMHQSAVCYEHEMTLVRRF | 0.027 ± 1 |
| VVMMSGYILTSTSLVYYHFY | 0.005 ± 0.54 |
| VVNSGICSYRCFTVGQVTYK | -0.553 ± 0.55 |
| VVNTVYSFSE | 0.332 ± 0.35 |

| Substance | amyloid nucleation score |
| --- | --- |
| VVPYS | inactive |
| VVQGVIFNGDMLNRGSLGKI | -0.129 ± 0.79 |
| VVRGRSGLCNMFWCDRQRRL | -0.63 ± 0.34 |
| VVSCGYARHDVGDFWLRDCR | 0.481 ± 0.38 |
| VVSFSVRSIPCSRVSFMAFS | -0.304 ± 0.54 |
| VVSPRVTGNME | 0.302 ± 0.23 |
| VVSVFSSYVRQCCYGGWEV | 6.67 ± 0.077 |
| VVVDGSLRVNLVSQGDPNNV | 1.07 ± 0.25 |
| VVVHSTLLGFWIIF | inactive |
| VVVIGNFVSPRDIRFISMYT | 8.118 ± 0.047 |
| VVWWGVNR | 0.091 ± 0.38 |
| VVYSSSFVAGLYDSMCWMWG | 1.49 ± 0.24 |
| VWDHVAGARALTWLRMLLKQ | inactive |
| VWDLMLKKAFTNSSNCYSVA | 1.19 ± 0.19 |
| VWEVAMISTINSAGHLCLGD | -0.109 ± 0.76 |
| VWGFVSGIESMCGSKAPNGG | -0.158 ± 0.33 |
| VWHLLRKSFSFR | 0.619 ± 0.8 |
| VWKVVKIRAL | inactive |
| VWMDIRSYLVGGLLTAVPRD | 0.481 ± 0.2 |
| VWPLCGCAWRWSGKWGGTRW | 6.41 ± 0.077 |
| VWVCSRTGQSQYIISYTALW | 1.65 ± 0.2 |
| VWWFIYVLGVVSTDAKVSPS | inactive |
| VYALCMGLAWKGLDYHKGER | 5.68 ± 0.07 |
| VYCSSCSVFLLCVKNLSWCV | 8.658 ± 0.053 |
| VYEVNGLSAGRMMSICNRRN | -0.467 ± 0.44 |

| Substance | amyloid nucleation score |
| --- | --- |
| VYFFCYSFTYEEGMAIRKSC | -1 ± 0.78 |
| VYFSCFSLWSSYDVIGRWSC | 7.446 ± 0.036 |
| VYGFP | 7.112 ± 0.048 |
| VYLDWFYWPDTIHG | 4.87 ± 0.075 |
| VYLFGGIRFDR | 4.04 ± 0.049 |
| VYLINRWVYPWEFIVHIIRV | inactive |
| VYMGSDL | 6.07 ± 0.072 |
| VYQYICFRVYGVVHWVGSSA | 1.4 ± 0.28 |
| VYRQNLNLNME | 0.189 ± 0.64 |
| VYSANSWH | -0.364 ± 0.3 |
| VYVIFPPLSTSLPVSMSYNL | -0.548 ± 1.1 |
| VYYLCVWF | -1.18 ± 0.41 |
| VYYLVCGL | 0.147 ± 0.38 |
| VYYVSRLLTFFPVSSNPCGS | 0.566 ± 0.56 |
| WAFNPTELLVDAQKSRGRIW | inactive |
| WANFWSGWKVTLVCCCKIVA | 3.7 ± 0.078 |
| WAVSATWWNFLSVYRKLSDL | -0.095 ± 1.1 |
| WAYAVNPTCYNFVGTGGSCS | 2.44 ± 0.11 |
| WCLSLPVRDSTVCLSTVLSG | 0.294 ± 0.29 |
| WCMLRYCVESGLSVSFMHFS | -0.626 ± 0.63 |
| WCSNR | 0.153 ± 0.45 |
| WDALGNVRRAMWVPS | 0.048 ± 0.41 |
| WDGNYSSKVCFTQLRMSWCL | 1.75 ± 0.27 |
| WDGYGVYFQTQAKVR | 0.102 ± 0.63 |
| WDRTTDSSFQVRKYQSENFL | 0.092 ± 1.1 |

| Substance | amyloid nucleation score |
| --- | --- |
| WDSIVDVSSKIAFFRMNDSS | -1.41 ± 0.62 |
| WDTSGRFVLNWVFWEGHPKM | 0.768 ± 0.56 |
| WFAKRW | inactive |
| WFAWYCSSRYRHRR | 3.57 ± 0.087 |
| WFDGDQDSNRQTVPIPQLPP | 0.549 ± 0.45 |
| WFFYWMYRGYSINMIFEMLD | -2.15 ± 0.49 |
| WFGYIYFHTTYSFFGHPAAT | -1.5 ± 1.1 |
| WFHGTGSQHS | inactive |
| WFLHRGSIGYQTAFFCSYLP | -0.208 ± 1.1 |
| WFQLRMVLTGEFEPVLERSR | 2.86 ± 0.11 |
| WFSLFLPPVSSKRQPADEMA | -0.317 ± 1.1 |
| WFYTYSLFGFVVNIVFTYPL | -0.176 ± 0.36 |
| WGCSHKLTCVGARHLVLD | 2.46 ± 0.17 |
| WGFTLWKLWRV | 0.676 ± 0.15 |
| WGITGLVCV | -0.674 ± 0.76 |
| WGNNSYSPFASKYAVSQDMD | -0.902 ± 0.62 |
| WHGTDHKIVGQDIVVVYSAV | 0.491 ± 0.6 |
| WHLCFISHTLRGMRTLWSIR | -0.829 ± 1.1 |
| WHMSWLK | 0.114 ± 0.63 |
| WHNITWYMFGPFMPGGEMLM | 0.446 ± 0.5 |
| WIAGLCPVDMADL | 0.644 ± 0.23 |

Reference: the supplement of paper PMC12042874
